Data on five molecules can be found in US9618524B2, “Method, composition, isolation and identification of a plaque particle and related biomarker” (Plaxgen Inc., priority 2012, dated 2017).

B1: Cluster of Interleukin enhancer-binding factor 3 (protein, UniProt Q12906 1-894, looked up)
Interleukin enhancer-binding …: MRPMRIFVNDDRHVMAKHSSVYPTQEELEAVQNMVSHTERALKAVSDWIDEQEKGSSEQAESDNMDVPPEDDSKEGAGEQKTEHMTRTLRGVMRVGLVAKGLLLKGDLDLELVLLCKEKPTTALLDKVADNLAIQLAAVTEDKYEILQSVDDAAIVIKNTKEPPLSLTIHLTSPVVREEMEKVLAGETLSVNDPPDVLDRQKCLAALASLRHAKWFQARANGLKSCVIVIRVLRDLCTRVPTWGPLRGWPLELLCEKSIGTANRPMGAGEALRRVLECLASGIVMPDGSGIYDPCEKEATDAIGHLDRQQREDITQSAQHALRLAAFGQLHKVLGMDPLPSKMPKKPKNENPVDYTVQIPPSTTYAITPMKRPMEEDGEEKSPSKKKKKIQKKEEKAEPPQAMNALMRLNQLKPGLQYKLVSQTGPVHAPIFTMSVEVDGNSFEASGPSKKTAKLHVAVKVLQDMGLPTGAEGRDSSKGEDSAEETEAKPAVVAPAPVVEAVSTPSAAFPSDATAEQGPILTKHGKNPVMELNEKRRGLKYELISETGGSHDKRFVMEVEVDGQKFQGAGSNKKVAKAYAALAALEKLFPDTPLALDANKKKRAPVPVRGGPKFAAKPHNPGFGMGGPMHNEVPPPPNLRGRGRGGSIRGRGRGRGFGGANHGGYMNAGAGYGSYGYGGNSATAGYSQFYSNGGHSGNASGGGGGGGGGSSGYGSYYQGDNYNSPVPPKHAGKKQPHGGQQKPSYGSGYQSHQGQQQSYNQSPYSNYGPPQGKQKGYNHGQGSYSYSNSYNSPGGGGGSDYNYESKFNYSGSGGRSGGNSYGSGGASYNPGSHGGYGGGSGGGSSYQGKQGGYSQSNYNSPGSGQNYSGPPSSYQSSQGGYGRNADHSMNYQYR
B2: Interleukin enhancer-binding factor 3 (protein)
chain: B1 Interleukin enhancer-binding …
B3: Isoform 2 of Spermatid perinuclear RNA-binding protein (protein)
chain: MVKHSTIYPSPEELEAVQNMVSTVECALKHVSDWLDETNKGTKTEGETEVKKDEAGENYSKDQGGRTLCGVMRIGLVAKGLLIKDDMDLELVLMCKDKPTETLLNTVKDNLPIQIQKLTEEKYQVEQCVNEASIIIRNTKEPTLTLKVILTSPLIRDELEKKDGENVSMKDPPDLLDRQKCLNALASLRHAKWFQARANGLKSCVIVLRILRDLCNRVPTWAPLKGWPLELICEKSIGTCNRPLGAGEALRRVMECLASGILLPGGPGLHDPCERDPTDALSYMTIQQKEDITHSAQHALRLSAFGQIYKVLEMDPLPSSKPFQKYSWSVTDKEGAGSSALKRPFEDGLGDDKDPNKKMKRNLRKILDSKAIDLMNALMRLNQIRPGLQYKLLSQSGPVHAPVFTMSVDVDGTTYEASGPSKKTAKLHVAVKVLQAMGYPTGFDADIECMSSDEKSDNESKNETVSSNSSNNTGNSTTETSSTLEVRTQGPILTASGKNPVMELNEKRRGLKYELISETGGSHDKRFVMEVEVDGQKFRGAGPNKKVAKASAALAALEKLFSGPNAANNKKKKIIPQAKGVVNTAVSAAVQAVRGRGRGTLTRGAFVGATAAPGYIAPGYGTPYGYSTAAPAYGLPKRMVLLPVMKFPTYPVPHYSFF
B4: Isoform 1B of Desmocollin-1 (protein)
chain: RWAPIPASLMENSLGPFPQHVQQIQSDAAQNYTIFYSISGPGVDKEPFNLFYIEKDTGDIFCTRSIDREKYEQFALYGYATTADGYAPEYPLPLIIKIEDDNDNAPYFEHRVTIFTVPENCRSGTSVGKVTATDLDEPDTLHTRLKYKILQQIPDHPKHFSIHPDTGVITTTTPFLDREKCDTYQLIMEVRDMGGQPFGLFNTGTITISLEDENDNPPSFTETSYVTEVEENRIDVEILRMKVQDQDLPNTPHSKAVYKILQGNENGNFIISTDPNTNEGVLCVVKPLNYEVNRQVILQVGVINEAQFSKAASSQTPTMCTTTVTVKIIDSDEGPECHPPVKVIQSQDGFPAGQELLGYKALDPEISSGEGLRYQKLGDEDNWFEINQHTGDLRTLKVLDRESKFVKNNQYNISVVAVDAVGRSCTGTLVVHLDDYNDHAPQIDKEVTICQNNEDFAVLKPVDPDGPENGPPFQFFLDNSASKNWNIEEKDGKTAILRQRQNLDYNYYSVPIQIKDRHGLVATHMLTVRVCDCSTPSECRMKDKSTRDVRPNVILGRWAILAMVLGSVLLLCILFTCFCVTAKRTVKKCFPEDIAQQNLIVSNTEGPGEEVTEANIRLPMQTSNICDTSMSVGTVGGQGIKTQQSFEMVKGGYTLDSNKGGGHQTLESVKGVGQGDTGRYAYTDWQSFTQPRLGEESIRGHTLIKN
B5: Pregnancy zone protein (protein)
chain: TEPQYMVLVPSLLHTEAPKKGCVLLSHLNETVTVSASLESGRENRSLFTDLVAEKDLFHCVSFTLPRISASSEVAFLSIQIKGPTQDFRKRNTVLVLNTQSLVFVQTDKPMYKPGQTVRFRVVSVDENFRPRNELIPLIYLENPRRNRIAQWQSLKLEAGINQLSFPLSSEPIQGSYRVVVQTESGGRIQHPFTVEEFVLPKFEVKVQVPKIISIMDEKVNITVCGEYTYGKPVPGLATVSLCRKLSRVLNCDKQEVCEEFSQQLNSNGCITQQVHTKMLQITNTGFEMKLRVEARIREEGTDLEVTANRISEITNIVSKLKFVKVDSHFRQGIPFFAQVLLVDGKGVPIPNKLFFISVNDANYYSNATTNEQGLAQFSINTTSISVNKLFVRVFTVHPNLCFHYSWVAEDHQGAQHTANRVFSLSGSYIHLEPVAGTLPCGHTETITAHYTLNRQAMGELSELSFHYLIMAKGVIVRSGTHTLPVESGDMKGSFALSFPVESDVAPIARMFIFAILPDGEVVGDSEKFEIENCLANKVDLSFSPAQSPPASHAHLQVAAAPQSLCALRAVDQSVLLMKPEAELSVSSVYNLLTVKDLTNFPDNVDQQEEEQGHCPRPFFIHNGAIYVPLSSNEADIYSFLKGMGLKVFTNSKIRKPKSCSVIPSVSAGAVGQGYYGAGLGVVERPYVPQLGTYNVIPLNNEQSSGPVPETVRSYFPETWIWELVAVNSSGVAEVGVTVPDTITEWKAGAFCLSEDAGLGISSTASLRAFQPFFVELTMPYSVIRGEVFTLKATVLNYLPKCIRVSVQLKASPAFLASQNTKGEESYCICGNERQTLSWTVTPKTLGNVNFSVSAEAMQSLELCGNEVVEVPEIKRKDTVIKTLLVEAEGIEQEKTFSSMTCASGANVSEQLSLKLPSNVVKESARASFSVLGDILGSAMQNIQNLLQMPYGCGEQNMVLFAPNIYVLNYLNETQQLTQEIKAKAVGYLITGYQRQLNYKHQDGSYSTFGERYGRNQGNTWLTAFVLKTFAQARSYIFIDEAHITQSLTWLSQMQKDNGCFRSSGSLLNNAIKGGVEDEATLSAYVTIALLEIPLPVTNPIVRNALFCLESAWNVAKEGTHGSHVYTKALLAYAFSLLGKQNQNREILNSLDKEAVKEDNLVHWERPQRPKAPVGHLYQTQAPSAEVEMTSYVLLAYLTAQPAPTSGDLTSATNIVKWIMKQQNAQGGFSSTQDTVVALHALSRYGAATFTRTEKTAQVTVQDSQTFSTNFQVDNNNLLLLQQISLPELPGEYVITVTGERCVYLQTSMKYNILPEKEDSPFALKVQTVPQTCDGHKAHTSFQISLTISYTGNRPASNMVIVDVKMVSGFIPLKPTVKMLERSSSVSRTEVSNNHVLIYVEQVTNQTLSFSFMVLQDIPVGDLKPAIVKVYDYYETDESVVAEYIAPCSTDTEHGNV

One assay has as its target T1, Abeta-42 plaque particles (Homo sapiens, UniProt P05067).
T1 construct: Abeta 1-42
Put plainly: Mass spectroscopy proteomics, semi-quantitative binding affinity of serum proteins (plaqueproteome, Table 2). The conditions noted are these: higher number = stronger affinity. The procedure, abridged: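 AD patient serum or plasma (50% in PBS) was incubated with Abeta-42 aggregates (30 μg) for 1 h at 37 °C, then stained with Thioflavin S for 30 min. Labeled particles were FACS-sorted, trypsin/Lys-C digested overnight and analyzed by MS/MS. Sequest searched human UniProt; Scaffold/Protein Prophet validated the identifications.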
In the case of B1, the “Semi-quantitative analysis of proteins binding to different plaque particles: Abeta-42” value is listed as 4.
For B2, the “Semi-quantitative analysis of proteins binding to different plaque particles: Abeta-42” value was determined as 4.
On to B3, for which the “Semi-quantitative analysis of proteins binding to different plaque particles: Abeta-42” value is given as 2.
On to B4, for which the “Semi-quantitative analysis of proteins binding to different plaque particles: Abeta-42” value turned out to be 4.
As to B5, the “Semi-quantitative analysis of proteins binding to different plaque particles: Abeta-42” value turned out to be 4.

Another assay deals with High Density cholesterol (Chl Large) plaque particles. The description is as above. The arrangement: species or system human. The settings on record: higher number = stronger affinity. A digest of the protocol:
(§1)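 Serum or plasma from atherosclerotic subjects, as 50% serum, was incubated with 30 μg cholesterol aggregates for 1 h at 37 °C. High- and low-density particles were then flow-sorted, trypsin-digested and analysed by MS/MS. Proteins were identified by Sequest search against human UniProt and validated with Protein Prophet.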
B1: the “Semi-quantitative analysis of proteins binding to different plaque particles: Chl Large” value is 0.
Still for that read-out and setting: then B2, with 0.
On the same count and under the same terms, next, B3: 0; B4: 0; B5: 0.

The next assay relates to Low density cholesterol (Chl small) plaque particles. The description is as above. Set-up: species or system human. The settings on record: higher number = stronger affinity. A digest of the protocol:
as §1
Consider B1, for which the “Semi-quantitative analysis of proteins binding to different plaque particles: Chl small” value is 0.
Same read-out and setting: next, B2: 0.
The same measure, in the same setting: next, B3: 0; B4: 0.
With B5, the “Semi-quantitative analysis of proteins binding to different plaque particles: Chl small” value worked out at 2.

The next assay has as its target T2, alpha-synuclein plaque particles (Homo sapiens, UniProt P37840).
T2 construct: 140 amino acids polypeptide
Described as above. The conditions noted are these: higher number = stronger affinity. A digest of the protocol:
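AD-subject plasma or serum (800 μL of 50%) mixed with 30 μg preformed alpha-synuclein aggregates for 1 h at 37 °C; Thioflavin S-positive particles isolated by flow sorting. After reduction, acrylamide alkylation and overnight tryptic digestion, serum proteins identified by MS/MS with Sequest and Scaffold.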
Regarding B1, the “Semi-quantitative analysis of proteins binding to different plaque particles: Synuclein” value worked out at 0.
As for B2, the “Semi-quantitative analysis of proteins binding to different plaque particles: Synuclein” value turned out to be 0.
Same read-out and setting: then B3, with 0; and B4, with 0.
Same read-out and setting: next, B5: 0.

A further assay concerns Tau plaque particles. Described as above. The settings on record: higher number = stronger affinity. The arrangement: species or system human. The procedure, abridged:
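Serum or plasma proteins captured on Thioflavin S-labelled Tau plaque particles (Tau-74, Tau-275 oligomers preformed in PBS at 37° C for 2 h; 1 h co-incubation at 37° C) were isolated by FACS sorting, then tryptically digested and identified by MS/MS (Sequest, human UniProt, strict trypsin).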
For B1, the “Semi-quantitative analysis of proteins binding to different plaque particles: Tau” value was found to be 0.
The same measure, in the same setting: next, B2: 0.
Same read-out and setting: then B3, with 0; and B4, with 0.
On the same count and under the same terms, then B5, with 0.
